# T1: HIS-PDZ2 protein (PSD-95 PDZ2, residues 155-249, with tag …) (human), P78352
# T1 chain: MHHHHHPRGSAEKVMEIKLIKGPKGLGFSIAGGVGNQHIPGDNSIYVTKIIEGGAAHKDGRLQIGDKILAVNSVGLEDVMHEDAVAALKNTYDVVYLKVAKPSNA
# Tests used:
# [1] = biological target: T2, HIS-PDZ1-2 protein (PSD-95 PDZ1-2 tandem, residues 61-249, with tag …) (human), P78352; assay: FP competition, fluorescent NR2B probe
# [2] = biological target: T1, HIS-PDZ2 protein (PSD-95 PDZ2, residues …); assay: FP competition, fluorescent NR2B probe
# [3] = biological target: T2, HIS-PDZ1-2 protein (PSD-95 PDZ1-2 …); assay: ITC; monomeric IETAV, no linker
# [4] = biological target: T3, HIS-PDZ1 protein (PSD-95 PDZ1, residues 61-151, with tag …) (human), P78352; assay: FP competition, fluorescent NR2B probe
# [5] = biological target: T3, HIS-PDZ1 protein (PSD-95 PDZ1, residues …); assay: FP competition, fluorescent NR2B probe; truncation series of NR2B peptide (1)
# [6] = biological target: T1, HIS-PDZ2 protein (PSD-95 PDZ2, residues …); assay: as above
Ki [1] [µM],Ki [2] [µM],Kd [3] [µM],Ki [4] [µM],fold increase in Ki [5] [fold],fold increase in Ki [6] [fold],Binder
2.5,1.7,1.9,,,,IETAV (modifications not checked) [IETAV (82)]
28,28,,56,3.1,6.8,ESDV (modifications not checked) [ESDV (8)]

# From patent US20160176924A1, “MODIFIED PEPTIDES AS POTENT INHIBITORS OF THE PSD-95/NMDA RECEPTOR INTERACTION” (priority 2008, published 2016)
